Measurements reported in the FLAb antibody collection (doi:10.7554/elife.23156).

B1: scFv; the commonest letter at each place (parent)
chain 1: EVKLDETGGGLVQPGRPMKLSCVASGFTFSDYWMNWVRQSPEKGLEWVAQIRNKPYNYETYYSDSVKGRFTISRDDSKSSVYLQMNNLRVEDMGIYYCTGSYYGMDYWGQGTSVTVS
chain 2: DVVMTQTPLSLPVSLGDQASISCRSSQSLVHSNGNTYLRWYLQKPGQSPKVLIYKVSNRFSGVPDRFSGSGSGTDFTLKISRVEAEDLGVYFCSQSTHVPWTFGGGTKLEIK

Key:
fluorescein = variants of: B1; assay: Kd (Tite-Seq); conditions: with fluorescein; format: scFv 4-4-20, heavy + light
[1] = variants of: B1; assay: yeast surface expression (ratio to wild type); higher = more expressed; conditions: format: scFv 4-4-20, heavy + light

Variant	Kd (fluorescein) [µM]	yeast surface expression [1]
chain 1 Y102F G104K	≥ 10	0.81
chain 1 Y102F G104Y W108D	≥ 10	0.204
chain 1 Y102F G109H	≥ 10	0.186
chain 1 Y102F G109N	≥ 10	0.27
chain 1 Y102F M105C W108T	≥ 10	0.419
chain 1 Y102F M105R	0.0146	1.2
chain 1 Y102F W108T	0.000479	0.854
chain 1 Y102F Y103I	0.0729	0.793
chain 1 Y102G	1.91	0.965
chain 1 Y102G D106Y	≥ 10	0.496
chain 1 Y102G G104F	≥ 10	0.545
chain 1 Y102G G104H	≥ 10	1.06
chain 1 Y102G G104L	≥ 10	0.816
chain 1 Y102G G109K	≥ 10	0.336
chain 1 Y102G M105C	≥ 10	0.828
chain 1 Y102G M105V	≥ 10	1.02
chain 1 Y102G Y103D	≥ 10	1.29
chain 1 Y102G Y103K G109K	≥ 10	0.425
chain 1 Y102G Y107F W108K	≥ 10	0.71
chain 1 Y102H	0.004	1.17
chain 1 Y102H D106G	≥ 10	0.856
chain 1 Y102H D106I	≥ 10	0.595
chain 1 Y102H D106Q	≥ 10	0.937
chain 1 Y102H G104F	≥ 10	0.598

Variant	Kd (fluorescein) [µM]	yeast surface expression [1]
chain 1 Y102H G104F W108Y	≥ 10	0.283
chain 1 Y102H G104N M105S	≥ 10	1.54
chain 1 Y102H G109P	≥ 10	0.281
chain 1 Y102H G109W	≥ 10	0.254
chain 1 Y102H M105P	≥ 10	0.764
chain 1 Y102H M105T	≥ 10	0.972
chain 1 Y102H W108A	0.0146	0.528
chain 1 Y102H W108M	≤ 0.000316	0.91
chain 1 Y102H Y103C	3.94	0.682
chain 1 Y102H Y103E	0.195	1.17
chain 1 Y102H Y107F G109K	≥ 10	0.242
chain 1 Y102H Y107K	≥ 10	1.05
chain 1 Y102I	0.00279	1.16
chain 1 Y102I D106Q	≥ 10	0.599
chain 1 Y102I W108N	≥ 10	0.316
chain 1 Y102I Y103E G109K	≥ 10	0.364
chain 1 Y102I Y103W	0.0015	1.15
chain 1 Y102K	0.021	0.81
chain 1 Y102K G104L D106G	≥ 10	0.302
chain 1 Y102K G109I	≥ 10	0.226
chain 1 Y102K G109Y	≥ 10	0.342
chain 1 Y102K M105N	0.02	0.916
chain 1 Y102K M105Y	0.0125	0.955
chain 1 Y102K W108S	≥ 10	0.534

Variant	Kd (fluorescein) [µM]	yeast surface expression [1]
chain 1 Y102K Y103A D106W	≥ 10	0.439
chain 1 Y102K Y103D	0.0132	1.24
chain 1 Y102K Y103L G104F	≥ 10	0.545
chain 1 Y102K Y103M	1.14	1.08
chain 1 Y102K Y107H	0.0233	0.909
chain 1 Y102K Y107I	0.0302	1
chain 1 Y102K Y107K	6.96	0.846
chain 1 Y102K Y107R	0.923	0.991
chain 1 Y102L	0.61	0.974
chain 1 Y102L D106E	3.04	1.26
chain 1 Y102L D106G	≥ 10	0.569
chain 1 Y102L D106R	≥ 10	0.344
chain 1 Y102L D106W	≥ 10	0.238
chain 1 Y102L G104C	≥ 10	0.323
chain 1 Y102L G104W	≥ 10	0.263
chain 1 Y102L G109K	≥ 10	0.214
chain 1 Y102L G109M	≥ 10	0.185
chain 1 Y102L G109N	≥ 10	0.369
chain 1 Y102L M105I	≥ 10	1.57
chain 1 Y102L W108Q	≥ 10	0.328
chain 1 Y102L Y107C G109A	≥ 10	0.168
chain 1 Y102L Y107S	5.96	1.78
chain 1 Y102M	4.6	0.944
chain 1 Y102M D106A W108A	≥ 10	0.612

Variant	Kd (fluorescein) [µM]	yeast surface expression [1]
chain 1 Y102M D106T	≥ 10	1.07
chain 1 Y102M G104M	≥ 10	0.472
chain 1 Y102M M105F	≥ 10	0.995
chain 1 Y102M M105K D106W	≥ 10	0.527
chain 1 Y102M M105T W108T	≥ 10	0.539
chain 1 Y102M W108K	≥ 10	0.392
chain 1 Y102M Y103A Y107L	≥ 10	0.84
chain 1 Y102M Y103E	≥ 10	1.26
chain 1 Y102M Y103F D106Y	≥ 10	0.388
chain 1 Y102M Y103T	≥ 10	0.766
chain 1 Y102M Y107S	≥ 10	0.685
chain 1 Y102N	0.0175	1.04
chain 1 Y102N D106E	≥ 10	1.27
chain 1 Y102N G104I	≥ 10	0.859
chain 1 Y102N G104Q	≥ 10	0.924
chain 1 Y102N M105C	≥ 10	1.22
chain 1 Y102N W108D	≥ 10	0.259
chain 1 Y102N Y103C	4.14	0.692
chain 1 Y102P	≥ 10	0.77
chain 1 Y102P G104S M105H	≥ 10	0.325
chain 1 Y102P G104Y W108S	≥ 10	0.379
chain 1 Y102P M105K	≥ 10	0.473
chain 1 Y102P M105S	≥ 10	0.416
chain 1 Y102P W108Y	≥ 10	0.464

Variant	Kd (fluorescein) [µM]	yeast surface expression [1]
chain 1 Y102Q	0.0335	1.12
chain 1 Y102Q D106Y	≥ 10	0.268
chain 1 Y102Q G104H	≥ 10	0.672
chain 1 Y102Q G104L	≥ 10	0.667
chain 1 Y102Q G104L W108S	≥ 10	0.348
chain 1 Y102Q G104T	≥ 10	0.546
chain 1 Y102Q G109D	≥ 10	0.485
chain 1 Y102Q M105D	≥ 10	0.932
chain 1 Y102Q M105I	8.56	0.843
chain 1 Y102Q M105V	≥ 10	1.05
chain 1 Y102Q M105Y	0.75	0.947
chain 1 Y102Q W108Q	≥ 10	0.508
chain 1 Y102Q Y103A	8.13	0.994
chain 1 Y102Q Y103E	≥ 10	0.977
chain 1 Y102Q Y103T	≥ 10	1.05
chain 1 Y102Q Y107C	≥ 10	0.353
chain 1 Y102Q Y107H	2.01	1.01
chain 1 Y102R	0.0252	1.06
chain 1 Y102R G109L	≥ 10	0.279
chain 1 Y102R M105A	8.56	1.1
